Where two headings read alike, the source gives them in different places.
B1: CGCG RNA (ssRNA)
RNA: UUUUCGCGUUUU
B2: CGCG DNA (ssDNA)
DNA: TTTTCGCGTTTT

Columns and labels:
Assay in all cases: EMSA
HsASCC1 WT [1] = target: T1, HsASCC1 WT (Homo sapiens, UniProt Q8N9N2-2)
HsASCC1 GDDG mutant = HsASCC1 GDDG mutant (Homo sapiens, UniProt Q8N9N2-2 1-357, K76D;R77D)
HsASCC1 WT [2] = target: T1, HsASCC1 WT; remark: listed apart in the source

Row | Binder | binding result (HsASCC1 WT [1]) | binding result (HsASCC1 GDDG mutant) | binding result (HsASCC1 WT [2])
1 | B1 | binds | no binding | 
2 | B2 |  |  | no binding

Reference: publication PMC11214414
